Assay results: article PMC4046702 (Journal of inorganic biochemistry, 2013)

Biological target: HIF prolyl-4-hydroxylase 2 (PHD2), residues 178-426 (human, UniProt Q9GZT9 178-426)
Assay: cell-based or functional assay

Sequence of HIF prolyl-4-hydroxylase 2 (PHD2), residues 178-426 (Q9GZT9 178-426): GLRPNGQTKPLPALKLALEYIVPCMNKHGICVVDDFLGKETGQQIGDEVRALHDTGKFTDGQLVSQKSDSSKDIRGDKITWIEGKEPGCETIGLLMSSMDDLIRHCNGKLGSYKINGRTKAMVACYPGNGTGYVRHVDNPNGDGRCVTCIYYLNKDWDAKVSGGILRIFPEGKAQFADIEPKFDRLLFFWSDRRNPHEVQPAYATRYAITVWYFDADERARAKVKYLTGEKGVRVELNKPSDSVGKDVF

Row | Binder | kcat/KM of NODD hydroxylation by PHD2 (steady-state, MALDI-TOF), 0 NaCl | kcat/KM of NODD hydroxylation by PHD2 (steady-state, MALDI-TOF), + 100 mM NaCl | kcat/KM of CODD hydroxylation by PHD2 (steady-state, MALDI-TOF), 0 mM NaCl | kcat/KM of CODD hydroxylation by PHD2 (steady-state, MALDI-TOF), + 100 mM NaCl
1 | DALTLLAPAAGDTIISLDYG [NODD peptide, HIF-1α 395-414 (F413Y)] | 667 M⁻¹ s⁻¹ | 833 M⁻¹ s⁻¹ |  | 
2 | DLDLEALAPYIPADDDFQL [CODD peptide, HIF-1α 556-574 (M561A, M568A)] |  |  | 16700 M⁻¹ s⁻¹ | 5000 M⁻¹ s⁻¹
